Source: publication PMC7347513 (Cancer Immunology, Immunotherapy : CII, 2020)

How the values were obtained:
[1] = target: T1, HLA A*2402 presenting HCMV pp65 peptide … on cells (Homo sapiens HLA-A*24:02/B2M; HCMV pp65 …, strain); test: flow cytometry on cells; details: one partner purified
T1 construct: copies: + +

[2] = target: T2, HLA B*3501 presenting HCMV pp65 peptide … on cells (Homo sapiens HLA-B*35:01 and B2M on …, strain); test: flow cytometry on cells; details: one partner purified
T2 construct: copies: + +

[3] = target: T3, biotinylated HLA A*2402/HCMV pp65 peptide … complex (Homo sapiens HLA-A*24:02/B2M; HCMV pp65 …, strain, biotin (in vivo, BirA, AviTag)); test: ELISA; details: both partners purified
T3 construct: copies: + +

[4] = target: T4, biotinylated HLA B*0801/HCMV IE1 peptide … complex (Homo sapiens HLA-B*08:01 and B2M; HCMV …, strain, biotin (in vivo, BirA, AviTag)); test: ELISA; details: both partners purified
T4 construct: copies: + +

B1: biotinylated Fab C12.2 (Fab, V domains shown)
VH: QITLKESGPTLVKPTQTLTLTCTFSGFSLSTSGVAVGWIRQPPGKALEWLALIYWDDDKHYSPSLKNRLTITKDTSKNQVVLTLTNMDPVDTATYYCARMTYSGSWYSFYYFDYWGQGTLVTVSS
VL: EIVLTQSPATLSFSPGERATLSCRASQSVGSYLAWYQQRPGQAPRPLIYDATNRATGIPTRFSGSGSGTDFTLTISSLEPEDFATYYCQHRRTFGRGTKLEIK
notes: source: E. coli TG1, biotinylated in vivo, purified (IMAC, Talon beads)
binding result [1]: binds

B2: biotinylated Fab C5 (Fab, V domains shown)
VH: EVQLVQSGAEVKRPGASVKVSCKASGYTFTNYDINWVRQATGQGLEWMGWMNPNSGNTGYAQKFQGRVTITADKSTSTAYMELSSLRSEDTAVYYCARQGRLRFLEWYMFDPWGQGTLVTVSS
VL: DVVMTQSPLSLPVTPGEPASISCRSSQSLLHSNGYNYLDWYLQKPGQSPQLLIYLGSIRASGVPDRVTGSGSGTDFTLQISRVEAEDVGVYYCMQGLQTPYTFGQGTKLEIK
notes: as for B1
binding result [2]: binds

B3: Fab C12/2 (Fab, V domains shown)
VH: B1 VH
VL: B1 VL
binding result [3]: binds

B4: Fab 2A2 (Fab, V domains shown)
VH: QVQLVQSGAEVKKPGASVKVSCKASGYTFTDYYVHWVRQAPGQGLEWMGRINPNSGGTNYAQKFQGRVTMTRDASISTAYMELSRLRSDDTAVYYCAREMGYGGKSEDYWGQGTLVTVSS
VL: SYVLTQPPSLSVAPGKTARIICGGNNIGSKSVHWYQQKPGQPPVLVVHDDGDRPSGIPERFSGSNSGITATLTITGVEAGDEADYYCQVWDYSSDHVIFGGGTKLTVL
notes: source: E. coli TG1, purified (IMAC, Talon beads)
binding result [4]: binds
